{"source": "paper PMC2705212", "about": "(Journal of molecular biology, 2008)", "molecules": {"B1": {"name": "BMP-7 growth factor dimer (ligand, human, UniProt P18075 293-431, looked up)", "chain": "STGSKQRSQNRSKTPKNQEALRMANVAENSSSDQRQACKKHELYVSFRDLGWQDWIIAPEGYAAYYCEGECAFPLNSYMNATNHAIVQTLVHFINPETVPKPCCAPTQLNAISVLYFDDSSNVILKKYRNMVVRACGCH"}, "B2": {"name": "BMPRII-Fc chimera (soluble extracellular domain of BMP receptor II) (Fc fusion, human, UniProt Q13873 27-150, looked up)", "chain": "SQNQERLCAFKDPYQQDLGIGESRISHENGTILCSKGSTCYGLWEKSKGDINLVKQGCWSHIGDPQECHYEECVVTTTPPSIQNGTYRFCCCSTDLCNVNFTENFPPPDTTPLSPPHSFNRDET"}}, "key": {"[1]": {"biological_target": "BMP-7 prodomain-growth factor complex (UniProt P18075)", "assay": "SPR"}, "[2]": {"biological_target": "BMP-7 prodomain", "assay": "SPR"}, "[3]": {"biological_target": "ActRIIA-Fc chimera (soluble extracellular domain of activin receptor IIA) (human) (UniProt P27037)", "sequence (P27037 20-135, change not shown)": "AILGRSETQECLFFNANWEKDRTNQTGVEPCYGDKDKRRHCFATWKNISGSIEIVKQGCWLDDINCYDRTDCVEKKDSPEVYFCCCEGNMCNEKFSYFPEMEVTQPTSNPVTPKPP", "assay": "SPR"}, "[4]": {"biological_target": "BMPRII-Fc chimera (soluble extracellular domain of BMP receptor II) (human) (UniProt Q13873)", "assay": "SPR"}, "[5]": {"biological_target": "B2", "assay": "AUC"}, "[6]": {"biological_target": "B1", "assay": "SPR"}}}
{"molecule": "ActRIIA-Fc chimera (soluble extracellular domain of activin receptor IIA) (from UniProt P27037 20-135) (Fc fusion)", "values": [{"measurement": "reduction of the response against immobilized BMP-7 gfd", "setting": "[1]", "result": 90, "unit": "%"}]}
{"molecule": "BMP-7 growth factor dimer (from UniProt P18075 293-431) (ligand)", "values": [{"measurement": "koff", "setting": "[2]", "result": 0.00209, "unit": "s⁻¹"}, {"measurement": "kon", "setting": "[2]", "result": 98700, "unit": "M⁻¹ s⁻¹"}]}
{"molecule": "BMP-7 prodomain-growth factor complex (from UniProt P18075 293-431)", "values": [{"measurement": "koff", "setting": "[3]", "result": 0.00352, "unit": "s⁻¹"}, {"measurement": "kon", "setting": "[3]", "result": 265000, "unit": "M⁻¹ s⁻¹"}, {"measurement": "koff", "setting": "[4]", "result": 0.00213, "unit": "s⁻¹"}, {"measurement": "kon", "setting": "[4]", "result": 216000, "unit": "M⁻¹ s⁻¹"}]}
{"molecule": "B1", "values": [{"measurement": "stoichiometry N", "setting": "[5]", "result": 2, "unit": "gfd per BMPRII-Fc dimer"}]}
{"molecule": "B2", "values": [{"measurement": "koff", "setting": "[6]", "result": 0.00298, "unit": "s⁻¹"}, {"measurement": "kon", "setting": "[6]", "result": 625000, "unit": "M⁻¹ s⁻¹"}, {"measurement": "reduction of the response against immobilized BMP-7 gfd", "setting": "[1]", "result": 90, "unit": "%"}]}
